Paper PMC7201271

Experiments:
[1] = molecular target: NmqNOR-BRIL (Neisseria meningitidis qNOR with apocytochrome b562 fused to its C-terminus) (Neisseria meningitidis); test: cryo-EM structure; NmqNOR-BRIL peak 1 at 4 mg/ml, no additional buffer components; C2 symmetry, 3.06 A
[2] = molecular target: Neisseria meningitidis quinol-dependent nitric oxide reductase, wild type (Neisseria meningitidis); test: native gel or EMSA; blue native PAGE of peak 1 and peak 2 fractions after concentration in 100 kDa cutoff devices; 5 and 10 ug loaded

| Substance | stoichiometry N [1] | stoichiometry N [2] |
| --- | --- | --- |
| NmqNOR-BRIL (Neisseria meningitidis qNOR with apocytochrome b562 fused to its C-terminus) (enzyme) | 2 | – |
| Neisseria meningitidis quinol-dependent nitric oxide reductase, wild type (enzyme) | – | 2 |
